According to the supplement of paper PMC9170038:

Tested on: MS2 coat protein
Assay: apparent KD of MS2 coat protein; designed switch direction (-1 OFF switch, 1 ON switch): 1; higher = weaker reporter binding
Method in brief: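 Three titration conditions were used: no input, 200 uM small-molecule ligand, and an oligonucleotide input. In each, SNAP-549-labelled MS2 coat protein was raised from 0.7 or 1.5 nM, doubling, to 3 µM over designed RNA switches transcribed on Illumina chips by stalled E. coli RNA polymerase. Curve fits of normalised cluster fluorescence gave values whose per-design median over clusters is the apparent KD.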

[1] = Eterna round: R95, input ligand: FMN 200 uM
[2] = Eterna round: R95, input ligand: microRNA oligo, concentration not stated
[3] = Eterna round: R95, input ligand: none
[4] = input ligand: microRNA oligo, concentration not stated

GGUUUAGUCGAGUACCGUUCCACUCGAAAACAUGAGGAUCACCCAUGUUUGGGACAAGCUUUGCUCCUCGUCUUUCC [Inardiza] (puzzle: Sensor for hsa-mir-208a)
apparent KD of MS2 coat protein [1]: 29.6 nM | apparent KD of MS2 coat protein [2]: 64.8 nM | apparent KD of MS2 coat protein [3]: 36.6 nM

UGGCUCAGACGAGGAUAUACGUGGUCACAUGAGGAUCACCCAUGUCUCGAGCUUCGGCUCGAGGCGUAGAAGGCGUCUGAGCCA [SSNG2/6-A2] (Eterna round: R96, puzzle: Same State NG 2)
apparent KD of MS2 coat protein (input ligand: FMN 200 uM): 125 nM | apparent KD of MS2 coat protein [4]: 141 nM | apparent KD of MS2 coat protein (input ligand: none): 218 nM

AUUUAACAUGAGGAUCACCCAUGUCAACAAAGUCGAGGAUAUGGGCAAAUAAAAUAAGAACCAGAAGGCGAAUAAU [salish99_ss1_r3_070] (puzzle: Same State 1)
apparent KD of MS2 coat protein [1]: 40.5 nM | apparent KD of MS2 coat protein [2]: 283 nM | apparent KD of MS2 coat protein [3]: 368 nM

GCUACGGACGUAGGAUAUGUAGGAUAUGGUGAGAGCUAAGCUUGGAAGUCACUUCAACCAGAAGGACAGAAGGACGCCGUGAGG [pwkr ssNG2 2FMN + F9.18] (Eterna round: R96, puzzle: Same State NG 2)
apparent KD of MS2 coat protein (input ligand: FMN 200 uM): 241 nM | apparent KD of MS2 coat protein [4]: 13.4 nM | apparent KD of MS2 coat protein (input ligand: none): 52.2 nM

GCUCGAUGUGUUGUCUACAUGAGGAUCACCCAUGUAGAUGCGGAGGAUAUCUACGUGCUUUAUGUAGAGAAGGUCGUAUCGAGC [SameState NG3 #85] (Eterna round: R96, puzzle: Same State NG 3)
apparent KD of MS2 coat protein (input ligand: FMN 200 uM): 18 nM | apparent KD of MS2 coat protein [4]: 23.7 nM | apparent KD of MS2 coat protein (input ligand: none): 34.3 nM

AACAAAUACACAGGAUAUACAGCGGCAGCCACUGUAGAAGGGUGGGCGGGUUCCAACAUGAGGAUCACCCAUGUACCCAAUAAA [Gerace] (Eterna round: R96, puzzle: Same State NG 1)
apparent KD of MS2 coat protein (input ligand: FMN 200 uM): 161 nM | apparent KD of MS2 coat protein [4]: 234 nM | apparent KD of MS2 coat protein (input ligand: none): 699 nM

ACGCCCUCAGUAGGAUAUGGGAAAGGAAGUGUACCAGAAGGACUGGUUGAACAUGAGGAUCACCCAUGUUCAACGACAGGGCAA [PowerStrip SSNG 1.20] (Eterna round: R96, puzzle: Same State NG 1)
apparent KD of MS2 coat protein (input ligand: FMN 200 uM): 18.6 nM | apparent KD of MS2 coat protein [4]: 13.9 nM | apparent KD of MS2 coat protein (input ligand: none): 18.6 nM

GAUCGUUUGAUAGGAUAUCGCUAUACAUGAGGAUCACCCAUGUUUACCACGCUGGUUUUUCAUACCGAGAAGGAUUCUGAUGAU [salish99_SSNG02_r04_009] (Eterna round: R96, puzzle: Same State NG 2)
apparent KD of MS2 coat protein (input ligand: FMN 200 uM): 29.9 nM | apparent KD of MS2 coat protein [4]: 24.9 nM | apparent KD of MS2 coat protein (input ligand: none): 36.9 nM

UAUUAAUCUGUAGGAUAUGUAGGAUAUGGACGAGGAUCACCCGAGCAGCAUCAGCGCACCAGAGGACAGAAGGACGGCCGGGUG [pwkr ssNG2 2F5 2FMN.24] (Eterna round: R96, puzzle: Same State NG 2)
apparent KD of MS2 coat protein (input ligand: FMN 200 uM): 1670 nM | apparent KD of MS2 coat protein [4]: 411 nM | apparent KD of MS2 coat protein (input ligand: none): 177 nM

GAGAGAUGGCGAGGAUAUUCGGUGAUAAUGAUAGAAGAAGGCGCUGACAUGAGGAUCACCCAUGUGGGAAUAAUCCAGAGAGAG [Parity 18 - Jieux - Same State NG 1] (Eterna round: R96, puzzle: Same State NG 1)
apparent KD of MS2 coat protein (input ligand: FMN 200 uM): 283 nM | apparent KD of MS2 coat protein [4]: 73.8 nM | apparent KD of MS2 coat protein (input ligand: none): 226 nM

UUGUUUUGAAAUUAACAUGAGGAUCACCCAUGUCGUGAGACAGAGGAUAUACAGGAAUGUAGGUAGUAGAAGGCUGUUUAGUGU [JR_SSNG3_Sub099] (Eterna round: R96, puzzle: Same State NG 3)
apparent KD of MS2 coat protein (input ligand: FMN 200 uM): 99.4 nM | apparent KD of MS2 coat protein [4]: 95.6 nM | apparent KD of MS2 coat protein (input ligand: none): 142 nM

GUGGUCAGACAUGAGGAUCACCCAUGUGGAAUAAAUAAGGAGAAGGAUAUUCAAUAUAGGAUAUAGAAGAAGGUCUGGUUGGUG (Eterna round: R96, puzzle: Same State NG 3)
apparent KD of MS2 coat protein [4]: 63.7 nM

CAGCGCUGUCGAGAGGAUAUGCGGUGGUGGACAUGAGGAUCACCCAUGUUAGCGAUAGCAUUACGGUAGAAGGCUCUACAGCUGC [Soteed - 2] (puzzle: Same State 2)
apparent KD of MS2 coat protein [1]: 30.9 nM | apparent KD of MS2 coat protein [2]: 22.4 nM | apparent KD of MS2 coat protein [3]: 33 nM
